Experimental data taken from the supplement of paper PMC11246515.
± gives the standard deviation of the averaged measurements.

Experiment: total protein half-life in vivo (active degradation + dilution); higher = more stable protein
[1] = E. coli NCM3722 delta-clpP delta-lon delta-hslV, growth: N-lim chemostat, doubling time 6 h
[2] = E. coli NCM3722 delta-clpP, growth: N-lim chemostat, doubling time 6 h
[3] = E. coli NCM3722 delta-hslV, growth: N-lim chemostat, doubling time 6 h
[4] = E. coli NCM3722 delta-lon, growth: N-lim chemostat, doubling time 6 h
[5] = E. coli NCM3722 delta-smpB, growth: N-lim chemostat, doubling time 6 h
[6] = wild type E. coli NCM3722, growth: C-lim chemostat, doubling time 3 h
[7] = wild type E. coli NCM3722, growth: C-lim chemostat, doubling time 6 h
[8] = wild type E. coli NCM3722, growth: C-lim chemostat, doubling time 12 h
[9] = wild type E. coli NCM3722, growth: N-lim chemostat, doubling time 6 h
[10] = wild type E. coli NCM3722, growth: N-lim chemostat, doubling time 12 h
[11] = wild type E. coli NCM3722, growth: P-lim chemostat, doubling time 6 h
[12] = wild type E. coli NCM3722, growth: P-lim chemostat, doubling time 12 h

Sequence | total protein half-life in vivo [1] [h] | total protein half-life in vivo [2] [h] | total protein half-life in vivo [3] [h] | total protein half-life in vivo [4] [h] | total protein half-life in vivo [5] [h] | total protein half-life in vivo [6] [h] | total protein half-life in vivo [7] [h] | total protein half-life in vivo [8] [h] | total protein half-life in vivo [9] [h] | total protein half-life in vivo [10] [h] | total protein half-life in vivo [11] [h] | total protein half-life in vivo [12] [h]
MTTLLNPYFGEFGGMYVPQILMPALRQLEEAFVSAQKDPEFQAQFNDLLKNYAGRPTALTKCQNITAGTNTTLYLKREDLLHGGAHKTNQVLGQALLAKRMGKTEIIAETGAGQHGVASALASALLGLKCRIYMGAKDVERQSPNVFRMRLMGAEVIPVHSGSATLKDACNEALRDWSGSYETAHYMLGTAAGPHPYPTIVREFQRMIGEETKAQILEREGRLPDAVIACVGGGSNAIGMFADFINETNVGLIGVEPGGHGIETGEHGAPLKHGRVGIYFGMKAPMMQTEDGQIEESYSISAGLDFPSVGPQHAYLNSTGRADYVSITDDEALEAFKTLCLHEGIIPALESSHALAHALKMMRENPDKEQLLVVNLSGRGDKDIFTVHDILKARGEI [P0A879] | 3.87 ± 0.32 | 3.49 ± 0.14 | 3.48 ± 0.17 | 3.69 ± 0.27 | 3.78 ± 0.36 | 2.95 ± 0.1 | 5.28 ± 0.27 | 9.833 ± 0.072 | 3.54 ± 0.042 | 5.38 ± 0.17 | 6.4 ± 1.5 | 11.5 ± 1.2
MTNNPPSAQIKPGEYGFPLKLKARYDNFIGGEWVAPADGEYYQNLTPVTGQLLCEVASSGKRDIDLALDAAHKVKDKWAHTSVQDRAAILFKIADRMEQNLELLATAETWDNGKPIRETSAADVPLAIDHFRYFASCIRAQEGGISEVDSETVAYHFHEPLGVVGQIIPWNFPLLMASWKMAPALAAGNCVVLKPARLTPLSVLLLMEIVGDLLPPGVVNVVNGAGGVIGEYLATSKRIAKVAFTGSTEVGQQIMQYATQNIIPVTLELGGKSPNIFFADVMDEEDAFFDKALEGFALFAFNQGEVCTCPSRALVQESIYERFMERAIRRVESIRSGNPLDSVTQMGAQVSHGQLETILNYIDIGKKEGADVLTGGRRKLLEGELKDGYYLEPTILFGQNNMRVFQEEIFGPVLAVTTFKTMEEALELANDTQYGLGAGVWSRNGNLAYKMGRGIQAGRVWTNCYHAYPAHAAFGGYKQSGIGRETHKMMLEHYQQTKCLLVSYSDKPLGLF | – | 4.04 ± 0.7 | 2.42 ± 0.5 | 2.83 ± 0.035 | 2.42 ± 0.14 | 2.73 ± 0.41 | 5.1 ± 0.31 | 7.87 ± 0.019 | 2.77 ± 0.77 | 4.07 ± 0.55 | 3.08 ± 1.1 | 6.36 ± 0.73
MYERYAGLIFDMDGTILDTEPTHRKAWREVLGHYGLQYDIQAMIALNGSPTWRIAQAIIELNQADLDPHALAREKTEAVRSMLLDSVEPLPLVDVVKSWHGRRPMAVGTGSESAIAEALLAHLGLRHYFDAVVAADHVKHHKPAPDTFLLCAQRMGVQPTQCVVFEDADFGIQAARAAGMDAVDVRLL | 5.33 ± 0.13 | – | – | 4.41 | 1.29 | 2.62 ± 0.62 | 4.33 ± 0.098 | 6.18 | – | – | 2.46 ± 0.33 | 7.98 ± 0.48
MEQRHITGKSHWYHETQSSTTEYDVLPLVPEAAKVSDPFLLDVILEKETLAPFLSWLDPARVLAVDLFPDQLTVTRSQTFTAYERLSTALTVAQVCGVQRLCNYYSARLTPLPGPDSTRESNHRLAQITQYARQLASSPSIIDNRSRQHLNDVGLTAWDCVIISQIIGFIGFQARTIATFQAYLGHPVRWLPGLEIQNYADASLFADESLRWRSSYEVEKLPEEHTKSSTAELCQLAEILSLHPISLSLLEKLLNSTRGNTQPDNQLAALLCARINGSPACFATCMDSSNEYKKISTLMRKGENEINQWADRHSVERATVQAIQWLTRAPDRFSAAQFSPLLEHEKSSTQIINLLVWSGLCGWINRLKIALGETY | 6.43 ± 1.4 | 1.97 ± 0.21 | 1.97 ± 0.55 | 1.26 | 1.07 ± 0.024 | 1.25 ± 0.085 | 1.21 ± 0.12 | 1.93 ± 0.13 | 1.31 ± 0.044 | 6.39 ± 6 | 1.32 ± 0.4 | 2.65 ± 0.49
MSSISLIQPDRDLFSWPQYWAACFGPAPFLPMSREEMDQLGWDSCDIILVTGDAYVDHPSFGMAICGRMLEAQGFRVGIIAQPDWSSKDDFMRLGKPNLFFGVTAGNMDSMINRYTADRRLRHDDAYTPDNVAGKRPDRATLVYTQRCKEAWKDVPVILGGIEASLRRTAHYDYWSDTVRRSVLVDSKADMLMFGNGERPLVEVAHRLAMGEPISEIRDVRNTAIIVKEALPGWSGVDSTRLDTPGKIDPIPHPYGEDLPCADNKPVAPKKQEAKAVTVQPPRPKPWEKTYVLLPSFEKVKGDKVLYAHASRILHHETNPGCARALMQKHGDRYVWINPPAIPLSTEEMDSVFALPYKRVPHPAYGNARIPAYEMIRFSVNIMRGCFGGCSFCSITEHEGRIIQSRSEDSIINEIEAIRDTVPGFTGVISDLGGPTANMYMLRCKSPRAEQTCRRLSCVYPDICPHMDTNHEPTINLYRRARDLKGIKKILIASGVRYDIAVEDPRYIKELATHHVGGYLKIAPEHTEEGPLSKMMKPGMGSYDRFKELFDTYSKQAGKEQYLIPYFISAHPGTRDEDMVNLALWLKKHRFRLDQVQNFYPSPLANSTTMYYTGKNPLAKIGYKSEDVFVPKGDKQRRLHKALLRYHDPANWPLIRQALEAMGKKHLIGSRRDCLVPAPTIEEMREARRQNRNTRPALTKHTPMATQRQTPATAKKASSTQSRPVNAGAKKRPKAAVGR | 5.41 ± 1.1 | 1.08 | – | 0.614 | – | 0.206 | – | – | – | – | – | 1.72
MPSLSKEAALVHEALVARGLETPLRPPVHEMDNETRKSLIAGHMTEIMQLLNLDLADDSLMETPHRIAKMYVDEIFSGLDYANFPKITLIENKMKVDEMVTVRDITLTSTCEHHFVTIDGKATVAYIPKDSVIGLSKINRIVQFFAQRPQVQERLTQQILIALQTLLGTNNVAVSIDAVHYCVKARGIRDATSATTTTSLGGLFKSSQNTRHEFLRAVRHHN [P0A6T5] | 2.49 ± 0.12 | 1.56 ± 0.27 | 1.5 ± 0.11 | 1.82 ± 0.16 | 1.65 ± 0.21 | 2.81 ± 0.23 | 3.46 ± 0.48 | 5.29 ± 0.21 | 1.89 ± 0.34 | 2.02 ± 0.14 | 4.46 ± 0.21 | 8.1 ± 0.27
